Test results taken from PMC5029526.

Biological target: HdaB-dsA (donor strand complemented HdaB: HdaB residues 1-119, 14-residue linker, HdaA residues 1-10) (Escherichia coli (enteroaggregative, EAEC))
Assay: SEC; Superdex-75 gel filtration in 50 mM NaOAc pH 5.0, 200 mM NaCl, last step of purification after refolding; monomer (17.5 kDa) and dimer (35 kDa) peaks

Substance: HdaB-dsA (donor strand complemented HdaB: HdaB residues 1-119, 14-residue linker, HdaA residues 1-10)
- stoichiometry N: 2
